Paper PMC2115223

Target: diphtheria toxin receptor (14.5-kD protein of Vero cells) (African green monkey (endogenous in Vero))
Test: radioligand binding

Sequence of diphtheria toxin receptor (14.5-kD protein of Vero cells) (African green monkey (endogenous in Vero)) (Q09118 20-208 limits assumed): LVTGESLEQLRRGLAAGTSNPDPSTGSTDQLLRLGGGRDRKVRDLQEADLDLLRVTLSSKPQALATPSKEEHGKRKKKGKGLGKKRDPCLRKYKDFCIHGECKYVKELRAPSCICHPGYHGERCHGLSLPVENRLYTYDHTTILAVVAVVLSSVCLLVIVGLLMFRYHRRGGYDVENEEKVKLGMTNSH

Substance CRM228 (natural protein) has a fold less potent than nicked CRM197 in competition of 200 times.
